B1: RHOBTB3 (parent)
chain: STTEGIQLAKELGATYLELHSLDD
B2: FAM189A2 (parent)
chain: CALNALTTTVCLVAAALRYLQIFA

Variants of: B1
Experiment: protein stability index of a GFP-peptide fusion (GPS, HEK-293T) (PSI 1-6); higher = more stable
Settings: c terminus: a fixed tail appended
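Further: lentivirally expressed fusions sorted by FACS into six bins by GFP to DsRed ratio, PSI derived from sequencing read proportions per bin multiplied by bin number.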

Protein stability index of substitutions, site by site:
L19: M 4.38, R 4.43, H 5.02, A 4.63, W 4.68, D 5.77, Y 4.82, E 4.76, K 5.37, V 4.68, F 4.21, Q 5.55, P 5.37, T 4.96, C 4.71, G 5.31, N 5, I 2.38, S 5.01
H20: Y 2.44, L 1.41, N 4.46, V 1.65, T 3.15, D 4.95, I 1.76, C 2.68, E 3.45, S 3.44, W 1.93, F 2.75, K 2.42, A 2.73, Q 3.13, P 4.93
D23: K 3.14, P 3.66, R 2.81, I 2.07, W 2.92, Q 3.55, L 2.21, N 3.13, C 1.87, H 3.71, A 2.43, Y 2.42, T 3.75, F 1.71, V 2.29, S 3
S21: E 3.93, N 4, Y 1.59, V 2.93, P 4.06, K 3.02, T 3.79, A 2.93, Q 3.39, G 4, D 4.49, H 3.38, C 3.14, F 1.64, R 2.86, W 1.03
E18: A 3.22, Q 3.39, I 1.86, V 2.38, R 2.96, L 2.41, S 3.86, F 2, P 3.97, G 3.72, N 4.02, D 4.36, W 1.61, M 2.66, Y 2.57, H 3.07, C 2.62, K 3.2, T 3.71
L17: R 3.94, H 4.8, Y 4.12, E 4.73, N 4.6, K 4.83, G 5.66, P 4.88, I 2.9, D 5.55, S 4.61, M 4.11, F 3.27, T 4.82, V 4.15, Q 4.74
D24: P 3.16, R 2.26, A 2.17, N 2.16, T 2.05, K 3.02, H 2.44, G 1.94, W 2.09, Q 1.96, E 3.35, Y 2.7, V 1.57, S 2.02, I 2.7, M 1.38
L22: H 4.62, R 5.07, M 4.32, G 3.38, V 4.3, W 3.45, A 4.99, I 3.7, T 4.15, Y 4.41, E 5.93, S 4.47, F 3.47, C 4.01, Q 4.91, P 4.54, D 4.96, N 4.68, K 4.68

Variants of: B2
Experiment: as above
Settings: c terminus: a fixed tail appended

Protein stability index of substitutions, site by site:
A2: D 4.37, I 2.77, W 2.26, Y 3.17, G 3.74, K 3.83, M 2.77, Q 3.74, P 3.11, T 4.22, R 3.42, F 4.07, N 3.43
C1: V 1.85, R 3.14, P 1.11, T 3.21, K 3.08, Y 2.99, A 2.05, S 3.48, L 1.59, D 2.46, I 2.86, F 4.75, G 2.6, Q 3.13, N 3.61, H 2.7
L3: A 3.13
